The values below come from patent publication US7981863.

In the test the target is VEGF receptor Flk-1 on rat neural stem cells (rat) (UniProt O08775). Put plainly: cell-based or functional assay.
Chain of VEGF receptor Flk-1 on rat neural stem cells (rat) (O08775 20-1343): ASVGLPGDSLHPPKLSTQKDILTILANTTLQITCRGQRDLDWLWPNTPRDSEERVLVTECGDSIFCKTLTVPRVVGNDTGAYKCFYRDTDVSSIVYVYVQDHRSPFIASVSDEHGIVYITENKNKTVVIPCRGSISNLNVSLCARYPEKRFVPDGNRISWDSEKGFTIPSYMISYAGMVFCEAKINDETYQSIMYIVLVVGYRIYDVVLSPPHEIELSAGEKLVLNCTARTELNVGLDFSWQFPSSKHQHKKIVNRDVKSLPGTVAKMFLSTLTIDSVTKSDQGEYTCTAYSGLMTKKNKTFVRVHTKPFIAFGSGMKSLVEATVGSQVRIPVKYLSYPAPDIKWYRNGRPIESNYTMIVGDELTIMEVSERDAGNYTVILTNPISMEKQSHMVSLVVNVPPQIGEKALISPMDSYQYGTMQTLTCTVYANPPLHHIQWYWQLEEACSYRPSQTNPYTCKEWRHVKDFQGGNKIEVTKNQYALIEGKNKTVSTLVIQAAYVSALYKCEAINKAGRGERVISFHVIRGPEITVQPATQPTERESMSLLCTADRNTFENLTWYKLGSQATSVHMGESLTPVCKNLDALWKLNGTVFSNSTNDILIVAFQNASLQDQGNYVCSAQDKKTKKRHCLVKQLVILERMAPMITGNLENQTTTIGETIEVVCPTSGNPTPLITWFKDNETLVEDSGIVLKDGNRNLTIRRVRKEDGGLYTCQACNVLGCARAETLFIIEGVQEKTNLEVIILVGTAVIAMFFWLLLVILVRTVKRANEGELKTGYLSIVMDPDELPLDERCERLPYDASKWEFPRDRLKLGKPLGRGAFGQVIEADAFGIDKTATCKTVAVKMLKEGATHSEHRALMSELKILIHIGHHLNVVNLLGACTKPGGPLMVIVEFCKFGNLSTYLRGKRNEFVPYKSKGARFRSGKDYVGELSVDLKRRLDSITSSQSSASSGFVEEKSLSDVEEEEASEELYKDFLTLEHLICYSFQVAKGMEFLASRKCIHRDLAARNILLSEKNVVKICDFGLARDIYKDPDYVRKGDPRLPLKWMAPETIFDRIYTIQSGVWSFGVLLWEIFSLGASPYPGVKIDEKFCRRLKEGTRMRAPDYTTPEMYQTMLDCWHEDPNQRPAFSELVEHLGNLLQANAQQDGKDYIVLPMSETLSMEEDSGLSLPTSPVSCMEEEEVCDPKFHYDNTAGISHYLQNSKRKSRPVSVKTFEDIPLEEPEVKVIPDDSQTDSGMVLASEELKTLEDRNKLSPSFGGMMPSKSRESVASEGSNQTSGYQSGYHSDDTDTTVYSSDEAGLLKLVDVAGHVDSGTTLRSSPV

“mouse recombinant VEGF164 (from UniProt Q00731 27-190) (ligand)” registered an ED50 of expansion of neural stem cell cultures (cell number after 7 days) of 10 ng/mL and a concentration of maximal stimulation of neural stem cell expansion of 50 ng/mL.
